Experiments:
[1] = target: Integrin peptide 1 (GFOGER flanked by [GPP]5 at both ends); test: ELISA; solid-phase binding assay (SPBA): peptides coated at 10 µg/mL overnight at 4 °C on Immulon 2HB 96-well plates, blocked with TBS containing 5% BSA; 1 µg/mL recombinant HSP47 for 1 h at room temperature; HRP-conjugated anti-His antibody, TMB, A450; means of three independent experiments
[2] = target: Collagen from calf skin (Sigma-Aldrich, Cat No: C9791) (calf) (UniProt P02453)
Sequence of UniProt P02453 (P02453 162-1217, chain 1 of 2): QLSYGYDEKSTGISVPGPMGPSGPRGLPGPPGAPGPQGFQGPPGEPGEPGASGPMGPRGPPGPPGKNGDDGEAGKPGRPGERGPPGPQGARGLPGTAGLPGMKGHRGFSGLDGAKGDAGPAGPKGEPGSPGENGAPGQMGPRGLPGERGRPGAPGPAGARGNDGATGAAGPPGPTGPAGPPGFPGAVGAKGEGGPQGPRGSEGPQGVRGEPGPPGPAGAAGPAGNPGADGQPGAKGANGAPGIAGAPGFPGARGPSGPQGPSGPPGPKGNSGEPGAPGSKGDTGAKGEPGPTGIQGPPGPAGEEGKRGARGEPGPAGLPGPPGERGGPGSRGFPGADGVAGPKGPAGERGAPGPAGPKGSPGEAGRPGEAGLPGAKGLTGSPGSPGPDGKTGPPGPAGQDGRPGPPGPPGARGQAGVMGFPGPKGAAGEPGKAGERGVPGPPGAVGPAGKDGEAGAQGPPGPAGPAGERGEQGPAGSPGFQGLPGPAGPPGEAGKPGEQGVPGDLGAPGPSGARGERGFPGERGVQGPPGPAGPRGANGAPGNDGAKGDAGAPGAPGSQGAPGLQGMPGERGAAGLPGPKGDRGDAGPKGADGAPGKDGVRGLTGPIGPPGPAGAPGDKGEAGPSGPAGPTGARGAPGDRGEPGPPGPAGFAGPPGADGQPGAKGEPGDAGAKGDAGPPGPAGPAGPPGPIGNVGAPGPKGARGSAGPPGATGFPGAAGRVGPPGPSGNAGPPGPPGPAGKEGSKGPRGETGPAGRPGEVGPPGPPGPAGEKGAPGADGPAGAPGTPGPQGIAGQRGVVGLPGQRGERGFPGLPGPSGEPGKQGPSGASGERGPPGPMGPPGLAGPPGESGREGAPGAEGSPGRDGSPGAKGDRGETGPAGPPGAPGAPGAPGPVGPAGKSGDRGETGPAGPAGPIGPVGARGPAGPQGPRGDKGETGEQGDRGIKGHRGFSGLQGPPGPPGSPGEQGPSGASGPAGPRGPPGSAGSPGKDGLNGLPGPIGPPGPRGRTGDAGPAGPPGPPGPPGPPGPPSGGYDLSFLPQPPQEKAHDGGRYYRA
Sequence of UniProt P02453 (P02465 80-1117, chain 2 of 2, further chain): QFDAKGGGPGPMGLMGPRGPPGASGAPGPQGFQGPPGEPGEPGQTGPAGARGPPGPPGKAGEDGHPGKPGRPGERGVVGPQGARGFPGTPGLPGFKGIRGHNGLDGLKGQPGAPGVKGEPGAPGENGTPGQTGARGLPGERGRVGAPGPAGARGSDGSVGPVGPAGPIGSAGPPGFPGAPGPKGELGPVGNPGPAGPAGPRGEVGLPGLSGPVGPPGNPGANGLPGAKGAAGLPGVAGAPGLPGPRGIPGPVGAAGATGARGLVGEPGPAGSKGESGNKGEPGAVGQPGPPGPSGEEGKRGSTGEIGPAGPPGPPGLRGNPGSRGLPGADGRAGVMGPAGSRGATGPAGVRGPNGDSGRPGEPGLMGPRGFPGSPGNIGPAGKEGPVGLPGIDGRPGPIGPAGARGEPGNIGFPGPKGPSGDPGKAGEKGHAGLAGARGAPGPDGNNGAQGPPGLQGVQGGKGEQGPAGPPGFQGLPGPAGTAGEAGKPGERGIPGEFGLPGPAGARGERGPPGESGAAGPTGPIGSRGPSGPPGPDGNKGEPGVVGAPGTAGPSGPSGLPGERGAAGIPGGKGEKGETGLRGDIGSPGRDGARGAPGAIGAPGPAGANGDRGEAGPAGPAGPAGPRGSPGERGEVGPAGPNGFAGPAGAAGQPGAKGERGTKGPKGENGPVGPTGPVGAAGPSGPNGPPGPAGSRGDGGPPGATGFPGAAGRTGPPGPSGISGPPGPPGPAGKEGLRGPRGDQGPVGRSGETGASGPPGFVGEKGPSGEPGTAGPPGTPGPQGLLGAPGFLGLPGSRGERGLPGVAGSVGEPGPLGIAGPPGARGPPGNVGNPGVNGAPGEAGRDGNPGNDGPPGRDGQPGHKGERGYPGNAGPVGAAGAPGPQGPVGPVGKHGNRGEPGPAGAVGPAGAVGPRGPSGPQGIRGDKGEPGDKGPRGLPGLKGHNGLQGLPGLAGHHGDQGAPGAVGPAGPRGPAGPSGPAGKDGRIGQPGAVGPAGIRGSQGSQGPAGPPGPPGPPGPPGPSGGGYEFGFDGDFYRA

Mean A450 [1]: > 2 A450 | IC50 of the small molecule Com II against HSP47 (2.6 μM) in the turbidity assay of collagen fibril formation [2]: 50 to 100 µM | IC50 of the small molecule Hs1 against HSP47 (2.6 μM) in the turbidity assay of collagen fibril formation [2]: 97 µM | IC50 of the small molecule Hs55 against HSP47 (2.6 μM) in the turbidity assay of collagen fibril formation [2]: 55 µM
B1: human HSP47 (heat shock protein 47), amino acids 19-418, C-terminal His-tag (natural protein)
chain: AEVKKPAAAAAPGTAEKLSPKAATLAERSAGLAFSLYQAMAKDQAVENILVSPVVVASSLGLVSLGGKATTASQAKAVLSAEQLRDEEVHAGLGELLRSLSNSTARNVTWKLGSRLYGPSSVSFADDFVRSSKQHYNCEHSKINFRDKRSALQSINEWAAQTTDGKLPEVTKDVERTDGALLVNAMFFKPHWDEKFHHKMVDNRGFMVTRSYTVGVMMMHRTGLYNYYDDEKEKLQIVEMPLAHKLSSLIILMPHHVEPLERLEKLLTKEQLKIWMGKMQKKAVAISLPKGVVEVTHDLQKHLAGLGLTEAIDKNKADLSRMSGKKDLYLASVFHATAFELDTDGNPFDQDIYGREELRSPKLFYADHPFIFLVRDTQSGSLLFIGRLVRPKGDKMRDEL

Source: article PMC8301893, “Identification of HSP47 Binding Site on Native Collagen and Its Implications for the Development of HSP47 Inhibitors” (Biomolecules, 2021)
